For 21 sequences, protein production results are on record in a protein production outcome set (Wang et al. 2014).

The nature of the series: label from the status in PepcDB records.
On to “MGRGRSSSSSSIESSSKSNPFGASSSTRNLSTDLRLGLSFGTSSGTQYFNGGYGYSVAAPAVEDAEYVAAVEEEEENECNSVGSFYVKVNMEGVPIGRKIDLMSLNGYRDLIRTLDFMFNASILWAEEEDMCNEKSHVLTYADKEGDWMMVGDVPWEMFLSTVRRLKISRANYHY”, for which the protein production entry was “failed”.

Regarding “MGRLSVAPLAQLNRLRVRLSLVFVLFLLLVIGLGAFSINRLSAFHNVAAEISGRWLLSNRIAGDLNNSISDFRATEGELLTARRGKDRGRAEGSLAVLDEEIADAKRRYETIEHDPIELDLYRQFSEQWRAYRELANRVLVLSQRDDKTDAIALYYQESRRAFTVANATLATLTERNVTGANEATQAEAVAYRHARDLIVNAIIVAALLMIAGVLYFVTAVTNPIAELVDRMHRISDNETEIDIPSTERPDEVGEIARAVVRFRDNTVALAQSRATLAEQARTLEITLANERRMAELQRNFVSMVSHEFRTPLTVIDGYAQRLSHIKPPLSLEAVQDRSSRIRAAVRRMTALIEDMLGASQVLDLATPGAFQRTEFSLHLLVHEVCEMHRESSPDAQIVEQWHADVPEVFHGDARLLFQAVSNLIGNAVKYSPPKTPVSVDVSMESGAILICVADQGIGIPEKDLGHVFERYVRGANVTGTAGAGVGLYIVRLAAELHGGTVSVRSAEGTGSRFLLRLPEAPAPAPLSA”, the protein production result is “failed”.

Regarding “MGRSAVYTILTTGYVGSTGPGVAATVSYVADGGRHVVFDPGMVASRDHILGPLAELGLGPDDITDVVLSHHHPDNTMNVGLFGRATVHDHKVEYLGDQWRNRDAEGYELTPSLRLIRTPGHSLEDITLLAGTDTGVVAFAGDLWWHSDGPADDPVAPDREVLRASRLRVLAAADLIVPGHGSPLEHHHHHH”, the protein production entry is listed as “failed”.

Take “MGRVYYGGVERTYLYRGRILNLALEGRYEIVEHKPAVAVIALREGRMLFVRQMRPAVGLAPLEIPAGLIEPGEDPLEAARRELAEETGLSGDLTYLFSYFVSPGFTDEKTHVFLAENLKEVEAHPDEDEAIEVVWMRPEEALERHQRGEVEFSATGLVGVLYYHAFLRGR”: the protein production entry is “not failed”.

In the case of “MGRYKDETPAVRVYTVCDESRYMIVRNVPALGCGDDLMRLFMTYGEVEEFAKRKLDESSFLGNRLQISYAPEYENVNDTKDKLESRRKEVLARLNPQKEKSTSQVTKLAGPALTQTDNVSSQRREMEYQFHRGNAPVTRVSSDQEYFASSSMNQTVKTVREKLNKTREENISSLSHCKQIEESGNQKRLQPSSQTQPEESGNQKRLQPSSQIQPDLKRTRVDNRRRI”, the protein production result is “failed”.

Consider “MGSASSCRRIYIGTEANQYLAEQTLIYSIRKHLSDPSIEIIPLTQTQQRVGGTRFGFVRFTLPQAMGYQGKALYLDADQLALTDLAPIFDLLPDDKAIACVYEAEGLYNGKPHVQTWHTSVMLLDCEQLAWQPDELFATVVPNKQEPKPGQIRYRNFMELQWFEQERIAKLPPSWNHFNIVTPETNIVHFSHVRSQPWKNPRHELTDFWLGYLKEAIAAGYLRRRDVVAAVARGHVHPWTLKAIA”, for which the protein production entry is “failed”.

For the sequence “MGSCCSCLNRDSVPDNHPTKFKVTNVDDEGVELGSGVMELTQSELVLHLHRREAVRWPYLCLRRYGYDSNLFSFESGRRCQTGQGIFAFKCSRAEEIFNLLQDLMQCNSINVMEEPVIITRNSHPAELDLPRAPQPPNALGYTVSSFSNGCPGEGPRFSAPRRLSTSSLRHPSLGEESTHALIAPDEQSHTYVNTPASEDDHRRGRHCLQPLPEGQAPFLPQARGPDQRDPQVFLQPGQVKFVLGPTPARRHMVKCQGLCPSLHDPPHHNNNNEAPSECPAQPKCTYENVTGGLWRGAGWRLSPEEPGWNGLAHRRAALLHYENLPPLPPVWESQAQQLGGEAGDDGDSRDGLTPSSNGFPDGEEDETPLQKPTSTRAAIRSHGSFPVPLTRRRGSPRVFNFDFRRPGPEPPRQLNYIQVELKGWGGDRPKGPQNPSSPQAPMPTTHPARSSDSYAVIDLKKTVAMSNLQRALPRDDGTARKTRHNSTDLPL”, the protein production result is recorded as “not failed”.

In the case of “MGSIDRYIFRTTLASFALVLVSLTGVIWITQALRGIDLMTSQGQTILTFLGITSLVVPALVLIISPIALMIAISHTLNKLATDSEIIVMNAAGFSPFRLFYPFFYATCVVALLVAFIAAYLAPDGMRRIKQWDAEITADVLTNILQPGRFAQLDKNLTIRIRERLPGGILAGIFIDDRRDPNERVSIVAEHGEVMKNDTGSFLVLETGNLQRFEVGKRDPALVAFGRYGFDMSKFSGQGRDVTLGIRERYLWELFSPSEDDPVYKQIPGQFRSALHDSLLAPIYPFAFAVLTFAFLGAPRTTRQSRNFSIGSSIVAVFGLRMAGFACSVMAVKSPAAVLVQYAMVLGAIGVGMWMIVGGIVVEPPPRLMEAINRSNARIARLFGRPATA”, the protein production entry is listed as “failed”.

“MGSLVHVKEATVITPSDQTPSSVLSLSALDSQLFLRFTIEYLLVYPPVSDPEYSLSGRLKSALSRALVPYFPFSGRVREKPDGGGGLEVNCRGQGALFLEAVSDILTCLDFQKPPRHVTSWRKLLSLHVIDVLAGAPPLVVQLTWLRDGGAALAVGVNHCVSDGIGSAEFLTLFAELSKDSLSQTELKRKHLWDRQLLMPSPIRDSLSHPEFNRVPDLCGFVNRFNAERLVPTSVVFERQKLNELKKLASRLGEFNSKHTSFEVLSAHVWRSWARSLNLPSNQVLKLLFSVNIRDRVKPSLPSGFYGNAFVVGCAQTTVKDLTEKGLSYATMLVKQAKERVGDEYVRSVVEAVSKERASPDSVGVLILSQWSRLGLEKLDFGLGKPVHVGSVCCDRYCLLLPIPEQNDAVKVMVAVPSSSVDTYENLVTSPNA”: the protein production entry is “failed”.

For “MGSRDLISSLPDEILGKVLSLLPTKRAASTAVLSKRWNNLPALVDKLDINDAIGGPGGFPEFIDKTLALLTNSTTIKRTSLNNEFQYGESQVNTWIRSFLERGCLQLYLNAQSLYTIDTEFFTSNTLVELTITGGFSPDGLLPPGGVFFPKLKTLSLVLMTFVDSDMYELFISGCPLLEEFLLRNDEIEIPPVWNALVSSPSIKRLTIVHHFPNYREAHDGCWFRTPNLVYLDYSSYVPDWYEVDLGSLVEARLDLRSWERLRDEKAGGYGDCDSVYDDEEYPDDPILGDVTNLVTGLSNIKTLHLSPDSLEVFYFCCKSMPVFHNLLTLSFESAKKEAGQCCHFSSISLLT”, the protein production entry is recorded as “failed”.

Regarding “MGSSARFRGRTDTMLLTRFNPENGTITVLSIPRDTRVEIPGYGTSKINAANVYGDVELTVQVVSQTLNYTPIDRYIRINTDAFRELVDLVGGVEVNVPKRMVYTDHTQKLYIDLQPGLQTLNGEQAEGFVRFRYDELGDIGRAQRQQLLIKALQEKLANPVMLTQLPKLYSVLQKYVDTDLTFAELMAIAQFSLRIQPDNLHLILLPGHFSGDGYGTSYWLPDYDRIDRVVAEHFSDRPSKLVDQRGSETGTLRIALQNASGSSGAAQDMADFLARHGYTNVLISEDWYQQTSETEIVAQQGDLGAAQVIRSVLGMGRVSANSTGVLSSDITIRIGRDWAAVLHLEHHHHHH”, the protein production entry is recorded as “failed”.

“MGSSGDLANSAERKLDDEKKRCDWRFTDNTPLIAACLLTGAVVLGVHYISICKDRTDISLPTLMESIESKCRSLGDAFNASAPESVLHPVPTQIGVAIWVAREEWSLPVHDTLDRIEKVVSGAGNRKQQFIQRIVRVSQLGSDGNLEKSSSSSTKWGGSSKVSQDPLANAAIKQQLGLSVAKHAYAVSLKEELLMHTISFFAAPPSAAKSVRCFLFDDKRAYCTVSTEMGMETTKREVEAAVATLLANWLEIENFRDANATQRWAMMRKVRGCHYALRALRQLKMSVDAHPEMPVPEGVRGAADRLEKLVRESDFAKLARAAADLQFHQLLLPQIYIPWDQAVVNHLSILMPVYGVITLAVRLIKENRKRAQVVQNS”: the protein production result is “failed”.

On to “MGSSHHHHHHSSGRENLYFQGVKSEDQLVHICSREEWRTAEREGSRVPATFRADGFVHLSTPAQVHLPANRLFAGRTDLVLLRLDPTALGAPVKWEPGVPADPASMLFPHLYGPLPVAAVTGVEEYRPDADGTFPARR”, for which the protein production result is “not failed”.

For “MGSSLSNLNDGTNGLAMGPGLGDIPESCVACVFMYLTPPEICNLAGLNRSFRGAASSDSVWEKKLPENYQDLLDLLPPERYHSLSKKDIFAVLSRPIPFDDDNKEVWIDRVTGRVCMAISARGMSITGIEDRRYWNWIPTEESRFHVVAYLQQIWWFEVDGTVRFHLPPGVYSLSFRIHLGRFTKRLGRRVCHFELTHGWDLKPVRFSLSTSDGQEASCEYYLDDVERNEALGKHKRGYWIEYRVGEFIVNGSEPSTEIQWSMKQIDCTHSKGGLCVDSVFINPIGDVKEHKRKAVLKEA”, the protein production entry was “failed”.

Consider “MGSSMEEKVVAVIMVGGPTKGTRFRPLSLNIPKPLFPIAGQPMVHHPISACKRIPNLAQIYLVGFYEEREFALYVSAISNELKVPVRYLREDKPHGSAGGLYHFRNLIMEDSPSHIFLLNCDVCCSFPLPKMLEAHRGYGGIGTLLVIKVSPESASQFGELVADPVTNELLHYTEKPETFVSDRINCGVYVFTPEIFNAIGDVSTQRKDRATLKRVSSFEALQPATRIPTDFVRLDQDILSPLAGKKRLYTYETMDFWEQIKSPGMSLRCSGLYLSQFRLTSPQLLASGDGTRSAIVIGDVYIHPSAKVHPTAKIGPNVSISANARVGPGVRLMSCIILDDVEIMENAVVTNAIVGWKSSIGRWSRVQAEGVYNSKLGVTILGDSVAVEDEVVVTSSIVLPNKTLNVSVQDEIIL”, for which the protein production entry is given as “failed”.

Consider “MGTAWNYPDLGSKNPMSGMVQSETAVIGGAGNVGMGIVAALLDAGMPTVVIGRDAAKLDALRAQHGHSPLLDIVQGSVADDASARRLATELAQRHRPLGAVIASLGSPPKAGRLLDRPVAVLRRRLERDVLPHLAAARHLLPLLAEADGGGRYLLLGSPCALRAWSAHGDRSVAASATRMLAQVLHEEAKPLGVRVQLLSVEQPVCTPGRAKDACPEWIRAVDVGRAAVSLIAGPGQPGQAIVTVSRRPHAAPSASRLAGLHVSIPTREISP”, for which the protein production result was “failed”.

Consider “MGTGEKTLKSFQLHRKQSVKVKDVPKGCLAIKVGSQGEEQQRFIVPVLYFNHPLFMQLLKEAEDEYGFDQKGTITIPCHVEEFRYVQALIDGERSVYNGNNHHHRHGGRDQYHHLVGCFRA”, for which the protein production result was “failed”.

For “MGTIGAAGCTVNRFAVALMPDSGGHPRKPIAGVDAPPPHLLLVARRMTRPGEHMALTTYTPVITVFAAGREWTLERAADLQTLWDNMVEADFGDDERLPYWTELWPSSLVLADWLHDNAGRIRGRTCLDMGCGLGLCSLVGQWLGARVTGMDYEPEALFHARRNAERNRVPQPLWTVMDWRAPAVRRHAADLVWGGDIMYERRFVTPVLDFLDHVLAPCGAAWVAEPGRTVYNHFRETLDARGWHARRVLSSETASLYEQPESVTVHLWEITRLEHHHHHH”, the protein production entry is reported as “failed”.

For the sequence “MGTITGEFTEHSAEAIAAMLSYIVQTEYEKKQLAKDTLQKYEEVVFLSQFANAVATCTGLQELIEVIRAEIRQVISVDEIFLYLYDQSQDSLTPLLYKTEESLQNFKAIEKIVERVLKLNQVEVIDDIQNDQDYLNQPSKIRSLLCYSLTVQNSIIGVLGLAHYQVKHFDSSDLNLFSTLTGQVAAAIRTAQYYETIKNYSQTLEIRLEHHHHHH”, the protein production entry is “failed”.

Regarding “MGTKKNFVLDTNVILHDYNCLKNFQENDIYLPIVVLEELDKFKKGNEQINYNAREFVRELDLITDDSLFTHGAPLGEGLGKLFIVTGDSEAPKVHESFPARKPDHQILAVAEYLARKYPKMKNILVTKDVNLRMKARSIGILCEDYITDKVVNVDIFE”, the protein production entry was “failed”.

On to “MGTPGEGLGRCSHALIRGVPESLASGEGAGAGLPALDLAKAQREHGVLGGKLRQRLGLQLLELPPEESLPLGPLLGDTAVIQGDTALITRPWSPARRPEVDGVRKALQDLGLRIVEIGDENATLDGTDVLFTGREFFVGLSKWTNHRGAEIVADTFRDFAVSTVPVSGPSHLRGLCGMGGPRTVVAGSSDAAQKAVRAMAVLTDHPYASLTLPDDAAADCLFLRPGLPGVPPFLLHRGGGDLPNSQEALQKLSDVTLVPVSCSELEKAGAGLSSLCLVLSTRPHS”, for which the protein production entry was “failed”.
